Assay: soluble fraction after stress (log2 fold change); higher = more stays soluble; pooled small domains, quantitative proteomics
Settings: stress: 75 degC
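Also: 20 min heating vs room temperature control held 20 min.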

| Sequence | soluble fraction (log2) |
| --- | --- |
| HMKMSLKENLLELLQKSSGEFLSGERAAETLGVSRTAVWKAVTSLKNEGYNIESVTNRGYRFS | -0.34 |
| HMKNANGYGSITKLKGNRRKPYMVRITVGRDENGFPIRKVLGYYSSKANAVAALSDYNREPYDI | -1.78 |
| HMKNENSLLVSRLAEEKIINRAKLVLMEYLKLSEPQAHRYIEKQAMDLQISRAEVAARVLETYE | -1.35 |
| HMKNEVENLSYMINRIIEYRDLNNLSNKNLANKIGISEALLSYILNGRRKLSKEIQRKIALFLLND | -1.99 |
| HMKNFAPVWGEEGAEFGKEVDTGFRLRIVEKEKDVNDLFEVIQKHTIQSQWKPGSTGTESIYKRI | 0.886 |
| HMKNHIEERRKARGMTQQQLASELGVSRQTIISLENGKYNPSILLAHSIARLFGERIEDIFILR | -2.45 |
| HMKNINTNIGKNLKRIRKLRGLTIDALATSSGVSKSMISEIERGIRNPSITIIWSLANALKTPLNYFLKE | -1.46 |
| HMKNKFYEEFSDYIFKHTGIHYAEANYYQLDARINKLMKFLETSDENDVLKAIQGGAVKDQRVHQMIVDLA | -2.16 |
| HMKNKRERLGIISEILRMQVIGSQEELLDILRAKGYDVTQATLSRDLKVLKVAKTPLSNGAYKYVLPPQ | -1.39 |
| HMKNLSQAEFMYLFKILAFGSTDPDNHPEMAATGMEIAKMLQGLLLSGNVLADILRKNQNVQFWL | 0.0572 |
| HMKNNITFSEFLHEVDNGRVIKVNIQGNNITGILADGKSFNTYTPNDPSLIEKLTSKGVSISATPI | 0.13 |
| HMKNNLKGSPIIIAGGYGVGSKENFNLLFDLAKVLNAEVGASRAAVDAGFVEHDRQIGQTGVTVRP | 0.143 |
| HMKNNYQYIVDQIKQLILDGELIVGDRLPSERDLSEMYQVSRASVREALKALETIGLLESRHGGGNYIVNH | -1.28 |
| HMKNQIGFKIKNARRKASISQADLSAKLGISSSYLNLIESGKRNVNVDLLLKVSDVLNIELKDLSK | -2.06 |
| HMKNTYTVVSGDTLWGIASRKLGGGSNWTKIYDANAATIESVANRRRGGRGSDHGHWIYPGTVLTI | -0.298 |
| HMKNYYRILGLNIDAEYEEIKAAYRILAQRHHPDKGGAAAEFRLIQEAYDILSNPLTKRNYDADLLATLN | -2.65 |
| HMKPDMAVIVGSRTLTFATTTDRQILVLRTDGTMVNRLSMKAGETRTITLPAGVYIVNGKKIIV | -2.35 |
| HMKPFSLESYKAFVVKRLGLFPETSSAQMHDWLKEEYPDFPLITPRTVYNFVMKIRQDYGIAKV | -3.43 |
| HMKPFVVVPIDQVRVGMFIQLDLGWMQHPFPVGSFRVASEAQIDTLRSLDLESVRYLPAKSDPAFQQP | -2.82 |
| HMKPGNFILDLLRTYGQKGTSAQNLMSSSRMFNFSENLIRVTLSRLAARGLIENFERGHYRLAE | -0.488 |

| Sequence | soluble fraction (log2) |
| --- | --- |
| HMKPGTIVTGVVVDIKSDVVVVNAGLKSEGIVPIEQFRNDRGELEVAIGDEVKVALDSLENGFGETVLSRE | -0.435 |
| HMKPQKRYLFEEVLTFLKHNSEKSFNYKQLGAAMEISNESDRFTLLETLEELKHQGFVVEKEIGKYQAKE | -1.25 |
| HMKPRVTVVTLGVDDLERAVRFYAEGLGFPTEGIVGREFEFGAVAFFDMQPGLRLALWPRRSLAHDSGLP | -0.373 |
| HMKPSISKIYALWGVLQRSGKIKSQDKAALDAFVRKYTGVDHVKWLDESQARKIIEILKQMIA | -1.55 |
| HMKPSKTDEAEYWLMERLEEGPQPAGDLIRIGEEFGYTPKILRDAGERFNMERYKDGLDHWMWKLPN | -0.154 |
| HMKPVTNHTVKFYVDDVLWKTVTVKHGGNVRLADLPMSDGKTFVGWSESVVNVTKDLTVFALFS | -1.96 |
| HMKPVYNKVEIPRGGEYALVLSDGTKVHLNSMSSLRFPVAFTTGKREVELQGEAYFEVSKTGQPFIVNV | 0.219 |
| HMKQGKGIIVVDGKLMPEDFNVATLSLDEVESITVLKGEKAVALYGEKAKEREVLLITTQKG | 0.427 |
| HMKQKAEVIFVSKTIMEALSKGVRLTPENLKSETELPIDDFYARLKELIDNGSVVESRENGESYLEAGN | -0.0162 |
| HMKQLNKRQDDILSLAEKEGYVSVENLAKTFTVSQQTIRRDINYLSDHEFLVRTHGGAFYSSG | -0.252 |
| HMKQNNYATKKELNFFVSRLISLLSYRDFFNPIEKKESMINNIEAIFTRSSLTSQELRTLHGIISNLVE | -3.57 |
| HMKQPNSYGSVHKLPGKRRKPWRVRKTSGWLLDEQSGTVKQQYITIGYYATKQEALIALADYNENP | -1.55 |
| HMKQQFTREQIIELMYKAYKKHKKKLNRVEIKKEKALPSYVTIGRYLNETSIKKIWEIVLSEKE | -1.22 |
| HMKQVEVESVIGKSEEAANSILTKAGLKVNIGYKEDSSKPTDTVLSQDPAPGEKVDEGTTVTIVVNNYKKP | 0.139 |
| HMKRANGTGSVFKLNGKRRNPWVARVTQGFDDKGRQKYVNLGYYKTKREAENELLSYNSNPYDAN | -0.238 |
| HMKREWKDDDPTVPAGWKVAWTTTSDNRAKIAFMSPDKKIFHSRKSALQHMLAAGTYAQSDIEKMTKGL | -0.315 |
| HMKRFSPPSIEEVDSYIREKGYTVDAERFVNFYESKGWYVGKNKMKNWRAAVATWQKEDNKRN | -0.226 |
| HMKRGDAYASEMIARLKEAHLIVMEGTLYPLLTRLKNDGLLSYRWEESTQGPPRKYYSITPVG | 0.151 |
| HMKRITGHLTEKNKKWYAVINLYDTDGKRKEKWQGLNLDANKGNKREAEHRLRQILDQYNTD | -0.258 |

Reference: the domain aggregation screens of Martell et al. (2025)
